Tested on: DDPS
Experiment: Enzyme activity of DDPS and inhibition by L-lysine (cell-free extract)
Type: biochemical, E. coli
Settings: for Inhibition of DDPS by L-lysine: various concentrations of L-lysine added, FIG. 2
Procedure: Mutant pdapA2's were recovered from the 36 strains described above. A dapA-deficient strain, JE7627 was transformed with them and the wild type pdapA2, respectively. A cell-free extract was prepared from each of the transformed strains, and the enzyme activity of DDPS was measured.
The cell-free extract (crude enzyme solution) was prepared as follows. A transformed strain was cultivated in a 2 x TY medium (1.6% Bacto trypton, 1% Yeast extract, 0.5% NaCl), and collected at an optical density at 660 nm (OD660) of about 0.8. A cell pellet was washed with 0.85% NaCl under a condition of 0° C., and suspended in 20 mM potassium phosphate buffer (pH 7.5) containing 400 mM KCl. The cells were disrupted by sonication (0° C., 200 W, 10 minutes). A disrupted cell solution was centrifuged at 33 krpm for 1 hour under a condition of 0° C. to obtain a supernatant to which ammonium sulfate was added to give 80% saturation to be stored at 0° C. overnight followed by centrifugation. A pellet was dissolved in 20 mM potassium phosphate buffer (pH 7.5)-400 mM KCl.
The enzyme activity of DDPS was measured in accordance with a method of Yugari et al. (Yugari, Y. and Gilvarg, C., J. Biol. Chem., 240, 4710 ([…])). Namely, the absorbance of a reaction solution having the following composition was measured at 37° C. with a spectrophotometer at a wavelength of 270 nm in a time-course manner, and generated dihydrodipicolinate was measured. Sodium pyruvate was removed from the reaction system to be used as a blank.
In measurement of the enzyme activity of DDPS, various concentrations of L-lysine were added to the enzyme reaction solutionand the degree of inhibition by L-lysine was examined.

| Molecule | Inhibition of DDPS by L-lysine | Specific activity of DDPS as compared with the wild type (cell-free extract of JE7627 transformants) |
| --- | --- | --- |
| wild type DDPS: wild type dihydrodipicolinate synthase of E. coli, SEQ ID NO:4 (protein) MFTGSIVAIVTPMDEKGNVCRASLKKLIDYHVASGTSAIVSVGTTGESATLNHDEHADVVMMTLDLADGRIPVIAGTGANATAEAISLTQRFNDSGIVGCLTVTPYYNRPSQEGLYQHFKAIAEHTDLPQILYNVPSRTGCDLLPETVGRLAKVKNIIGIKEATGNLTRVNQIKELVSDDFVLLSGDDASALDFMQLGGHGVISVTTNVAARDMAQMCKLAAEEHFAEARVINQRLMPLHNKLFVEPNPIPVKWACKELGLVATDTLRLPMTPITDSGRETVRAALKHAGLL | suffered inhibition by L-lysine | – |
| pdapAS24 (protein) MFTGSIVAIVTPMDEKGNVCRASLKKLIDYHVASGTSAIVSVGTTGESATLNHDEHADVVMMTLDLADGRIPVIAGTGANATAEAISLTQRFNDSGIVGCLTVTPYYNRPSQEGLYQYFKAIAEHTDLPQILYNVPSRTGCDLLPETVGRLAKVKNIIGIKEATGNLTRVNQIKELVSDDFVLLSGDDASALDFMQLGGHGVISVTTNVAARDMAQMCKLAAEEHFAEARVINQRLMPLHNKLFVEPNPIPVKWACKELGLVATDTLRLPMTPITDSGRETVRAALKHAGLL | desensitized | lowered a little |

Source: US5989875A, “Method of process for producing L-lysine by fermentation” (priority 1995, dated 1999)
